Experimental data taken from patent publication US20110135636A1 (SYMPHOGEN A S, published 2011).

B1: antibody 1257 (antibody, human IgG1, kappa, V domains shown)
VH: EVQLQQSGPELVKPGASVKIPCKTSGYTFTDYNMAWVKQSHGKSLEWIGDIIPNNGGAIYNQKFKGKATLTVDKSSSTASMELRSLTSEDTAVYFCARKNIYYRYDGAGALDYWGQGTSVTVSS
VL: QIVLTQSPAIMSASPGEKVTMTCSASSSVSYIYWYQQKPGSSPRLLIYDASNLASGVPVRFSGSGSGTSYSLTISRMEAEDAATYYCQQWSSYPITFGSGTKLEIKR
notes: Chimeric IgG1 kappa
B2: antibody 1284 (antibody, human IgG1, kappa, V domains shown)
VH: QVQLQQPGAELVKPGASVKLSCKASGYTFTSDWMHWMKQRPGQGLEWIGEINPSNGRSSYNEKFKSKATLTVDKSSSTAYMQLSSLTSEDSAVYYCARIGGIYVETYWGQGTLVTVSS
VL: DIVLTQSPASLAVSLGQRATISCRASQSVSTSTYSYMHWYQQKSGQPPKLLIKYASNLESGVPARFSGSGSGTDFTLNIHPVEEEDTATYYCQHSWEIPWTFGGGTKLEIKR
notes: Chimeric IgG1 kappa
B3: antibody 1261 (antibody, human IgG1, kappa, V domains shown)
VH: EVQLVESGGGLVKPGGSLKLSCAVSGFTFSSYVMSWVRQTPEKRLEWVATITSGGRNIYYLDSVKGRFTISRDNAKNTLYLQMSSLRSEDTAMYYCARHEDYRYDGYYAMDYWGQGTSVTVSS
VL: QIVLTQSPAIMSASPGEKVTITCSASSSVSYMHWFQQKPGTSPKLWIYSTSNLASGVPARFSGSGSGTSYSLTISRMEAEDAATYYCQQRSSYPYTFGGGTKLELKR
notes: Chimeric IgG1 kappa

Columns and labels:
[1] = biological target: T1, wild type full length EGFR purified from A431 cells (human, UniProt P00533 25-1210); experiment: competition ELISA, competitor Ab-5; parameters: concentration or dose not given beside the values
T1 construct: mature; Bought; coated on ELISA wells; also called full length EGFR receptor antigen; Sigma E3641
Protocol: (§1) The ELISA was adapted from the descriptions published in Ditzel et al, 1995, The Journal of Immunology, Vol 154, Issue 2 893-906.
(§2) An epitope blocking ELISA was performed by diluting full length EGFR receptor antigen to 0.5 μg/ml in PBS; and coating 50 μl/ELISA well overnight at 4° C. […] Finally wells were washed four times with PBS-T and plates were developed by adding 50 μl/well TMB and read at 620 nm every 5-15-30 min. The degree of inhibition was calculated from the formula: % inhibition=(1−(OD competition/OD no competition (PBS)))×100.

[2] = biological target: T1, wild type full length EGFR purified …; experiment: competition ELISA, competitor ICR10; parameters: concentration or dose not given beside the values
Protocol: as §1, §2

[3] = biological target: T1, wild type full length EGFR purified …; experiment: competition ELISA, competitor Ab-2; parameters: concentration or dose not given beside the values
Protocol: as §1, §2

[4] = biological target: T1, wild type full length EGFR purified …; experiment: competition ELISA, competitor Ab-11; parameters: concentration or dose not given beside the values
Protocol: as §1, §2

[5] = biological target: T2, recombinant human EGFR extracellular domain with 6xHis (human, UniProt P00533 25-645); experiment: SPR competition, competitor 1042
T2 construct: In-house produced; also called 6xHis EGFR ECD; soluble human EGFR ECD; not shown: 6xHis tag
Protocol: (§3) SPR analysis was performed on a Biacore 3000 machine containing four flow cells. A CM5 Biacore chip was conjugated with 10,000 Resonance units (Ru) polyclonal anti-His antibody to flow cells 1-4 according to the manufacturer's instructions. […] Immediately after antigen injection the maximal binding of the Anti-EGFR mAb without competition was established in each flow cell during a reference run. Briefly 5 μl antibody at a concentration of 40 μg/ml was injected over all flow cells with captured EGFR followed by stripping of the antibody/antigen complex with a low pH acid wash (10 sec. contact time with 10 mM Glycine-HCl, pH2). After the determination of Anti-EGFR antibody maximal binding to each flow cell, a competition run was performed during the same Biacore cycle. Flow cells were first saturated with EGFR ECD antigen followed by injection of different reference antibodies or Anti-EGFR antibodies into separate flow cells using the same antigen saturating conditions as outlined above. This step was immediately followed by a second injection of Anti-EGFR antibody over the flow cell saturated with EGFR antigen and competition antibody to minimize the dissociation of either antigen or blocking antibody. Then the antibody/antigen complexes were stripped off with a low pH acid wash (10 sec. contact time with 10 mM Glycine-HCl, pH 2) and the whole cycle beginning with the reference run was repeated with a new Anti-EGFR antibody. The degree of inhibition of tested Anti-EGFR antibodies were determined by comparing the Ru max value of the individual Anti-EGFR antibody before and after competition by introduction of report points recorded two seconds before and after injection of each sample.

[6] = biological target: T1, wild type full length EGFR purified …; experiment: competition ELISA, competitor Ab-1; parameters: concentration or dose not given beside the values
Protocol: as §1, §2

[7] = biological target: T1, wild type full length EGFR purified …; experiment: competition ELISA, competitor Ab-3; parameters: concentration or dose not given beside the values
Protocol: as §1, §2

[8] = biological target: T2, recombinant human EGFR extracellular …; experiment: SPR competition, competitor 1449
Protocol: as §3

[9] = biological target: T2, recombinant human EGFR extracellular …; experiment: SPR competition, competitor 1308
Protocol: as §3

[10] = biological target: T1, wild type full length EGFR purified …; experiment: competition ELISA, competitor Ab-10; parameters: concentration or dose not given beside the values
Protocol: as §1, §2

[11] = biological target: T3, EGFRvIII (deletion mutant EGFR) (human, UniProt P00533 25-645, limits assumed); experiment: EGFRvIII ELISA (Example 1)
T3 construct: also called deltaEGFR; rhEGFRvIII

[12] = biological target: T2, recombinant human EGFR extracellular …; experiment: SPR (BIAcore 2000); IgG captured on anti-human Fc, soluble monovalent EGFR ECD injected
Protocol: Kinetic analysis of the full length IgG antibodies of the invention was performed on a BIAcore 2000, employing an assay as described in (Canziani, Klakamp, et al. 2004, Anal. Biochem, 325:301-307) allowing measurement of monovalent affinities of whole IgG molecules against soluble antigen. […] The chip surface was regenerated in between cycles by stripping the captured antibody/antigen complexes with a 10 second injection of 100 mM H₃PO₄. […] The association rate constant (ka) and dissociation constant (kd) were evaluated globally from the generated sensograms with the BIA evaluation software 4.1 provided by the manufacturer.

Row | Binder | % inhibition [1] [%] | % inhibition [2] [%] | % inhibition [3] [%] | % inhibition [4] [%] | % inhibition [5] [%] | % inhibition [6] [%] | % inhibition [7] [%] | % inhibition [8] [%] | % inhibition [9] [%] | % inhibition [10] [%] | binding result [11] | Kd [12] [nM] | koff [12] [s⁻¹] | kon [12] [M⁻¹ s⁻¹] | t1/2 [12] [min]
1 | B1 | 25 | 78 | 37 | 92 | 16 | 6 | 77 | 15 | 27 | 33 | no binding | – | – | – | –
2 | B2 | 31 | 88 | 26 | 52 | -1 | 12 | 9 | -1 | 68 | 30 | no binding | 4.6 | 0.00015 | 32000 | 78.1
3 | B3 | 6 | 57 | 6 | 88 | -18 | 3 | 30 | -20 | -10 | 13 | no binding | 18.6 | 0.0032 | 170000 | 3.6
